Here are results for 33 molecules from patent publication US20240132624A1 (Ablynx, published 2024).

Positions count from the first letter of the chain named. In names and notes the source's numbering stands.

First the molecules themselves.
B1: T026301192 (bispecific antibody, name in Kabat numbering)
chain: DVQLVESGGGVVQPGGSLRLSCAASGFTFSSYAMYWVRQAPGKGLEWVSAISSGGGSTDYADSVKGRFTISRDNSKNTLYLQMNSLRPEDTALYYCAADTLYTELTWYSYWGQGTLVTVSSGGGGSGGGGSGGGGSGGGGSGGGGSGGGGSGGGGSEVQLVESGGGVVQPGGSLRLSCAASGFTFRSFGMSWVRQAPGKGPEWVSSISGSGSDTLYADSVKGRFTISRDNSKNTLYLQMNSLRPEDTALYYCTIGGSLSRSSQGTLVTVSSA
notes: bispecific ISVD construct; also called T0263018B11(E1D, S100E)-35GS-ALB23002-A
B2: T026301196 (bispecific antibody, name in Kabat numbering)
chain: B1 chain with G26T, S53Q, E104S, W107S
notes: bispecific ISVD construct; also called T0263018B11(E1D, G26T, S52aQ, W100cS)-35GS-ALB23002-A
B3: T026301230 (other, name in Kabat numbering, not shown: small tags and cut ends)
chain: DVQLVESGGGVVQPGGSLRLSCAASGFTFSSYAMYWVRQAPGKGLEWVSAISSGGGSTDYADSVKGRFTISRDNSKNTLYLQMNSLRPEDTALYYCAADTLYTSLTSYSYWGQGTLVTVSS
notes: pentavalent ISVD construct
B4: T026301366 (bispecific antibody, not shown: small tags and cut ends)
chain: B1 chain with D1E, E104S, W107S
notes: tetravalent ISVD construct; also called X-Y-FcRn(W100cS)-35GS-ALB23002
B5: T026301115 (VHH, name in Kabat numbering)
VHH: B3 chain with D1E, G26T, A33D, S104D, S107K
notes: tagless
B6: T026301106 (VHH, name in Kabat numbering)
VHH: B3 chain with D1E, G26T, A33D, S53Q, S104D
notes: tagless
B7: T026301116 (VHH, name in Kabat numbering)
VHH: B3 chain with D1E, S31E, A33D, S104D, S107K
notes: tagless
B8: T026301120 (VHH, name in Kabat numbering)
VHH: B3 chain with D1E, G26T, S31E, A33D, S53Q, S104D
notes: tagless
B9: T026301108 (VHH, name in Kabat numbering)
VHH: B3 chain with D1E, G26T, S31E, S53Q, S104D
notes: tagless
B10: T026301092 (VHH, name in Kabat numbering)
VHH: B3 chain with D1E, A33D, S104D, S107K
notes: tagless
B11: T026301101 (VHH, name in Kabat numbering)
VHH: B3 chain with D1E, G26T, S104D, S107K
notes: tagless
B12: T026301093 (VHH, name in Kabat numbering)
VHH: B3 chain with D1E, G26T, A33D
notes: tagless
B13: T026301114 (VHH, name in Kabat numbering)
VHH: B3 chain with D1E, G26T, S31E, S104D, S107K
notes: tagless
B14: T026301104 (VHH, name in Kabat numbering)
VHH: B3 chain with D1E, S31E, S53Q, S104D, S107K
notes: tagless
B15: T026301131 (VHH, name in Kabat numbering)
VHH: B3 chain with D1E, G26T, A33D, S104D
notes: tagless
B16: T026301130 (VHH, name in Kabat numbering)
VHH: B3 chain with D1E, G26T, S31E, A33D, S104D
notes: tagless
B17: T026301118 (VHH, name in Kabat numbering)
VHH: B3 chain with D1E, A33D, S104D
notes: tagless
B18: T026301095 (VHH, name in Kabat numbering)
VHH: B3 chain with D1E, S31E, A33D, S104D
notes: tagless
B19: T026301129 (VHH, name in Kabat numbering)
VHH: B3 chain with D1E, S31E, A33D, S53Q, S104D, S107K
notes: tagless
B20: T026301077 (VHH, name in Kabat numbering)
VHH: B3 chain with D1E, G26T, S31E, A33D, S53Q, S107K
notes: tagless
B21: T026301057 (VHH, name in Kabat numbering)
VHH: B3 chain with D1E, S31E, S53Q
notes: tagless
B22: T026301091 (VHH, name in Kabat numbering)
VHH: B3 chain with D1E, S31E, A33D
notes: tagless
B23: T026301080 (VHH, name in Kabat numbering)
VHH: B3 chain with D1E, A33D
notes: tagless
B24: T026301100 (VHH, name in Kabat numbering)
VHH: B3 chain with D1E, A33D, S53Q, S104D, S107W
notes: tagless
B25: T026301070 (VHH, name in Kabat numbering)
VHH: B3 chain with D1E, S31E, A33D, S53Q
notes: tagless
B26: T026301087 (VHH, name in Kabat numbering)
VHH: B3 chain with D1E, S31E, A33D, S53Q, S107W
notes: tagless
B27: T026301098 (VHH, name in Kabat numbering)
VHH: B3 chain with D1E, S31D, S107W
notes: tagless; also called T0263018B11 S31D
B28: T026301117 (VHH, name in Kabat numbering)
VHH: B3 chain with D1E, S31E
notes: tagless
B29: T026301076 (VHH, name in Kabat numbering)
VHH: B3 chain with D1E, A33D, S53Q, S107K
notes: tagless
B30: T026301063 (VHH, name in Kabat numbering)
VHH: B3 chain with D1E, G26T, S53Q, S107W
notes: tagless
B31: T026301069 (VHH, name in Kabat numbering)
VHH: B3 chain with D1E, A33D, S53Q
notes: tagless
B32: T026301075 (VHH, name in Kabat numbering)
VHH: B3 chain with D1E, G26T, S31E, S107W
notes: tagless
B33: T026301099 (VHH, name in Kabat numbering)
VHH: B3 chain with D1E, S31E, A33D, S107W
notes: tagless

T3 sequence (Q8SPV9 24-297 limits assumed, chain 1 of 2): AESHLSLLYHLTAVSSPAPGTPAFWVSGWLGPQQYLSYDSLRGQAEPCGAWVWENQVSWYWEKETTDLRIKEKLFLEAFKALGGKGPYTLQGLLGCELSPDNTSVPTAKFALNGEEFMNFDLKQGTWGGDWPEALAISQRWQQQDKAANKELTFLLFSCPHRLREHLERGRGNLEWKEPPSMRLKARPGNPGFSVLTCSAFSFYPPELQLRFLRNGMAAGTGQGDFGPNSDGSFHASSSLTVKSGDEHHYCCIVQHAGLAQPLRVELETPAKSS
T3 sequence (Q8SPW0 21-119 limits assumed, chain 2 of 2): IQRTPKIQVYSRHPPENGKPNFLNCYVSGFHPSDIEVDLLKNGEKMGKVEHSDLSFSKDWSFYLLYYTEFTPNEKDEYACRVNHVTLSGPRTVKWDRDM

In the first experiment the target is T1, mouse serum albumin (mouse, UniProt P07724 25-608).
T1 construct: also called MSA
T1 sequence (P07724 25-608 limits assumed): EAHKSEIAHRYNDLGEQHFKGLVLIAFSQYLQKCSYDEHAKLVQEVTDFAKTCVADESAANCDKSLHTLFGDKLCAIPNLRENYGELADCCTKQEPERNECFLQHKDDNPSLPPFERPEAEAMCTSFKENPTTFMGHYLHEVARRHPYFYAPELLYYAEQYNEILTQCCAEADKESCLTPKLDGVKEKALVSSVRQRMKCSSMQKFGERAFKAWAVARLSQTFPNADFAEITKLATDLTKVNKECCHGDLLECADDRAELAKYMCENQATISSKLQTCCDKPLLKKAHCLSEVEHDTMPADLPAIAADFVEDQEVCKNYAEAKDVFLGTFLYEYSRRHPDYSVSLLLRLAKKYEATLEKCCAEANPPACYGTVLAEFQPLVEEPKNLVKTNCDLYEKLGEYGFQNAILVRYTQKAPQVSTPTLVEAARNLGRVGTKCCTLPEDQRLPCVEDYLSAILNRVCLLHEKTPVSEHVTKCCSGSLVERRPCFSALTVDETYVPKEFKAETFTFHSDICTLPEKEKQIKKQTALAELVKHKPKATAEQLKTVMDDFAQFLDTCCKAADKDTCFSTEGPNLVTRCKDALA
The experiment is described as follows: SPR pH 7.4.
Procedure: (§1) The affinity of the purified, multivalent ISVD constructs for human and mouse serum albumin (HSA and MSA, respectively) was determined on the ProteOn XPR36 (BioRad Laboratories, Inc.) instrument. […] The ISVD constructs were injected at 6 different concentrations (between 1 and 500 nM) and allowed to associate for 120 s at 45 μL/min and dissociate for 600s-3600s at 45 μL/min. Evaluation of the sensorgrams was based on the 1:1 Langmuir dissociation model simultaneously fitting on and off-rates.
For orientation: Kd means the constant that tells how readily two partners part at equilibrium. A lower Kd goes with tighter binding. Take B1: binding was characterised by a dissociation constant (Kd) of 87 nM.

B2: the dissociation constant (Kd) was found to be 120 nM.

The target of the next experiment is T2, human serum albumin (human, UniProt P02768 25-609).
T2 construct: also called HSA
The experiment is described as follows: SPR pH 7.4.
Procedure: as §1
Regarding B1, the Kd came to 12 nM. This counts as double-digit nanomolar.

Consider B2, for which the Kd worked out at 15 nM. The Kd values of the last two molecules are within 1.5-fold of each other.

Another experiment has as its target T3, cyno FcRn/b2M (cyno, UniProt Q8SPV9 24-297; Q8SPW0 21-119, biotinylated).
T3 construct: bought recombinant biotinylated protein (Immunitrack ITF05 or ACRO FCM-C82W5); also called cFcRn; cFcRn/cb2M
The experiment in a line: SPR pH 6.0.
Procedure: (§2) The affinities of the monovalent purified, tagless ISVDs were determined for human FcRn on ProteOn XPR36 (BioRad Laboratories, Inc.), the MASS-2 (Sierra sensors, Gmbh) or SPR-32 (Bruker Corporation) instrument. In the same way, the affinities of bivalent ISVD constructs comprising two of the same monovalent building blocks of purified, tagless ISVDs were determined for human FcRn on ProteOn XPR36 (BioRad Laboratories, Inc.), the MASS-2 (Sierra sensors, Gmbh) or SPR-32 (Bruker Corporation) instrument. For affinity measurements, ˜1000-3000RU (hFcRn/hb2M; ACRO Biosystems FCM-H82W4) was captured on a ProteOn NLC sensor (ProteOn) or Biotin-tag Capture Chip or a High Capacity Amine Chip (pre-immobilized with neutravidin; MASS-2). The ISVDs were injected at 6 different concentrations (between 1 and 4000 nM) and allowed to associate for 120s at 45 μL/min and dissociate for 600s-3600s at 45 μL/min. […] Evaluation of the sensorgrams was based on the 1:1 Langmuir dissociation model simultaneously fitting on and off-rates.
In turn, B3 registered a dissociation constant Kd of 54 nM.

The target in another experiment is T4, human FcRn/b2M (human, UniProt P61769 21-119, biotinylated).
T4 construct: bought recombinant biotinylated protein (ACRO FCM-H82W4 or Immunitrack ITF01); also called hFcRn; hFcRn/hb2M
T4 sequence (chain, as listed by the source limits assumed, chain 1 of 2): as the sequence (Q8SPV9 24-297 limits assumed, chain 1 of 2) above, with D39N, Q44E, S99G, G189S, N190S, M217L, T269S counted along it
T4 sequence (P61769 21-119 limits assumed, chain 2 of 2): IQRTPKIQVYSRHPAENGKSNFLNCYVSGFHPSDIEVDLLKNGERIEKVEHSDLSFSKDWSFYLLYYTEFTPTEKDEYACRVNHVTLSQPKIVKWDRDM
The experiment is described as follows: SPR pH 6.0.
Procedure: as §2
B3: the Kd is 100 nM.

Another experiment deals with T3, cyno FcRn/b2M. The experiment is described as follows: SPR pH 6.0. This is another data set of the same source.
Procedure: (§3) The affinity of the purified, multivalent ISVD constructs for human and cyno FcRn was determined on the MASS-2 (Sierra sensors, Gmbh) instrument, hFcRn/hb2M and cFcRn/cb2M was captured on a Biotin-tag Capture Chip or a High Capacity Amine Chip (pre-immobilized with neutravidin). The ISVD constructs were injected at 6 different concentrations (between 1 and 4000 nM) and allowed to associate for 120 s at 45 μL/min and dissociate for 600 s-3600 s at 45 μL/min. […] Evaluation of the sensorgrams was based on the 1:1 Langmuir dissociation model simultaneously fitting on and off-rates.
The molecule B4 yielded a Kd of 180 nM.

Another experiment has as its target T4, human FcRn/b2M. The experiment in a line: SPR off-rate pH 6.0.
As to B5, the binding result is reported as “no binding”.

As to B6, the binding result was “no binding”.

For B7, the binding result is “no binding”.

Consider B8, for which the binding result is on record as “no binding”.

In the case of B9, the binding result was “no binding”.

On to B10, for which the binding result is listed as “no binding”.

Consider B11, for which the binding result is “no binding”.

On to B12, for which the binding result is reported as “no binding”.

Take B13: the binding result is given as “no binding”.

As to B14, the binding result was “no binding”.

For B15, the binding result is “no binding”.

In the case of B16, the binding result is “no binding”.

B17: the binding result is recorded as “no binding”.

For the molecule B18, the binding result is “no binding”.

In the case of B19, the binding result is given as “no binding”.

Take B20: the binding result was “no binding”.

A further experiment concerns the target T3, cyno FcRn/b2M. The experiment is described as follows: SPR pH 7.4.
Procedure: as §3
As for B1, the Kd was determined as 480 nM.

For a further experiment, the target named is T4, human FcRn/b2M. The experiment is described as follows: SPR pH 6.0. This is another data set of the same source.
As a reminder, the koff is a measure of how fast the partners let go of each other. A lower koff goes with slow dissociation. The molecule B21 showed a koff of 0.016 s⁻¹.

For B22, the koff was determined as 0.0062 s⁻¹. This koff is about 2.6-fold lower than that of the molecule before.

B23 had a koff of 0.0051 s⁻¹.

Take B24: the koff was 0.0039 s⁻¹. The koff values of the last two molecules are within 1.5-fold of each other.

B25 returned a koff of 0.0046 s⁻¹.

Molecule B26 registered a koff of 0.0011 s⁻¹.

As to B27, the dissociation rate constant (koff) turned out to be 0.013 s⁻¹.

In turn, B28 displayed a koff of 0.0067 s⁻¹.

For the molecule B29, the koff came out at 0.003 s⁻¹.

Molecule B30 registered a koff of 0.005 s⁻¹. This koff is about 1.7-fold higher than that of the molecule before.

For the next experiment, the target named is T3, cyno FcRn/b2M. The experiment in a line: SPR pH 6.0. This is another data set of the same source.
In the case of B21, the Kd was 260 nM. This lies in the sub-micromolar range.

Consider B22, for which the Kd came out at 160 nM. Against the preceding molecule, the Kd is about 1.6-fold lower.

Regarding B23, the Kd was 130 nM.

On to B31, for which the Kd turned out to be 23 nM.

Consider B24, for which the dissociation constant (Kd) turned out to be 98 nM. This Kd lies about 4.3-fold higher than the previous one.

B25 gave an equilibrium dissociation constant (Kd) of 140 nM. This Kd and that of the molecule before are within 1.5-fold of each other.

The molecule B26 gave a Kd of 20 nM. This Kd is about 7-fold lower than that of the molecule before.

Consider B27, for which the Kd was determined as 140 nM.

For B28, the Kd was 110 nM.

In the case of B29, the Kd was determined as 37 nM.

Consider B30, for which binding was characterised by a dissociation constant (Kd) of 41 nM.

Take B32: the Kd was found to be 21 nM.

In the next experiment the target is T4, human FcRn/b2M. The experiment in a line: SPR pH 6.0. This is another data set of the same source.
As to B21, binding was characterised by a dissociation constant (Kd) of 390 nM.

Consider B22, for which binding was characterised by a dissociation constant (Kd) of 250 nM.

On to B33, for which binding was put at a Kd of 30 nM. Against the preceding molecule, the Kd is about 8.3-fold lower.

In the case of B23, binding was put at a Kd of 150 nM.

Regarding B24, the affinity, expressed as Kd, was 140 nM. This Kd and that of the molecule before are within 1.5-fold of each other.

The molecule B25 came in with a dissociation constant Kd of 150 nM.

As for B26, the affinity, expressed as Kd, was 25 nM.

For the molecule B27, the Kd was 200 nM.

On to B28, for which the Kd is 170 nM.

For B29, the Kd turned out to be 120 nM. This Kd and that of the molecule before are within 1.5-fold of each other.

Molecule B30 came in with a Kd of 62 nM.

The target in another experiment is T3, cyno FcRn/b2M. The experiment in a line: SPR pH 7.4. This is another data set of the same source.
The molecule B32 displayed a Kd of 3100 nM. That is a single-digit micromolar value.

The next experiment addresses T4, human FcRn/b2M. The experiment in a line: SPR pH 7.4.
B32 had a dissociation constant (Kd) of 5600 nM.

The target of a further experiment is T1, mouse serum albumin. The experiment is described as follows: SPR pH 6.0.
Procedure: as §1
As to B1, the dissociation constant (Kd) was 64 nM.

The molecule B2 showed a Kd of 89 nM.

In the next experiment the target is T2, human serum albumin. The experiment is described as follows: SPR pH 6.0.
Procedure: as §1
B1 yielded an equilibrium dissociation constant (Kd) of 5.7 nM.

The molecule B2 displayed a Kd of 7.4 nM.

The next experiment deals with T2, human serum albumin. The experiment is described as follows: SPR pH 7.4. This is another data set of the same source.
Procedure: as §1
In turn, B4 showed a Kd of 7.5 nM.

The target of the next experiment is T3, cyno FcRn/b2M. The experiment is described as follows: SPR pH 7.4. This is another data set of the same source.
Procedure: as §2
Take B3: the dissociation constant Kd turned out to be 580 nM.

The target of the next experiment is T4, human FcRn/b2M. The experiment in a line: SPR pH 7.4. This is another data set of the same source.
Procedure: as §2
Take B3: the dissociation constant (Kd) stood at 670 nM. That is a sub-micromolar value.

The next experiment concerns the target T3, cyno FcRn/b2M. The experiment in a line: SPR pH 6.0. The source holds these as a separate data set.
Procedure: as §3
Regarding B1, the affinity, expressed as Kd, was 140 nM.

For B2, the dissociation constant Kd is 510 nM.

The target in another experiment is T4, human FcRn/b2M. The experiment is described as follows: SPR pH 6.0. This is another data set of the same source.
Procedure: as §3
Turning to B1, the Kd was 250 nM.

Take B2: the Kd turned out to be 1000 nM.

The target of a further experiment is T2, human serum albumin. The experiment is described as follows: SPR pH 6.0. The source holds these as a separate data set.
Procedure: as §1
B4 yielded a Kd of 10 nM.
